Measured values taken from publication PMC10294653.
Like-named read-outs stand apart in the source and are kept apart here.

Legend:
Test in all cases: two-hybrid; bacterial two hybrid (BACTH): T18 and T25 adenylate cyclase fusions in E. coli BTH101 (cya mutant); beta-galactosidase assay in Miller units; cultures grown overnight at 26°C, subcultured in LB, 37°C for 30 min
[1] = target: T25 fusion to the N terminus of WcaJ (K. pneumoniae (strain KPPR1S))
[2] = target: T25 fusion to the N terminus of Wzc (K. pneumoniae (strain KPPR1S))
[3] = target: T25 fusion to the N terminus of Wzb (K. pneumoniae (strain KPPR1S))
[4] = target: leucine zipper (zip) domain, positive control of the bacterial two-hybrid system
[5] = target: leucine zipper (zip) domain, positive control of the bacterial two-hybrid system; remark: listed apart in the source

| Substance | beta-galactosidase activity relative to the zip-zip controls (% of the zip-zip controls) [1] | beta-galactosidase activity [2] [Miller units] | beta-galactosidase activity relative to the zip-zip controls (% of the zip-zip controls) [3] | beta-galactosidase activity [4] [Miller units] | beta-galactosidase activity [5] [Miller units] |
| --- | --- | --- | --- | --- | --- |
| RmpD-T18 (natural protein) | < 10 | 2150 | < 10 | – | – |
| leucine zipper (zip) domain, positive control of the bacterial two-hybrid system (domain or fragment) | – | – | – | 1530 | 1740 |
